Measured values taken from article PMC5052711.

Columns and labels:
[1] = whole-cell patch-clamp, 37°C; conditions: glycan lost; control: wild type
[2] = whole-cell patch-clamp, maximum amplitude; conditions: glycan lost; control: wild type
[3] = fluorometric membrane depolarization, maximal RFU; conditions: glycan lost; control: wild type
[4] = fluorometric membrane depolarization, 23°C vs 37°C; conditions: glycan lost; control: wild type (less sensitive at 23°C than at 37°C)
[5] = fluorometric membrane depolarization, FlexStation, 37°C; conditions: glycan lost; control: wild type
[6] = anti-FLAG WB of cell lysates, normalized to total protein; conditions: glycan lost; control: wild type
[7] = ratio of WT-relative surface to WT-relative total expression; conditions: glycan lost; control: wild type

Row | Protein | other: agonist sensitivity, EC50 [1] | other: channel current [2] | other: maximal channel response, other: mean maximal RFU [3] | other: temperature dependence of agonist sensitivity, EC50 [4] | other: agonist sensitivity, EC50 [5] | expression_or_secretion, fold_change [6] | localisation_or_trafficking, other: surface/total ratio relative to WT [7]
1 | hTRPA1: N747/753Q (protein) parent chain: MKRSLRKMWRPGEKKEPQGVVYEDVPDDTEDFKESLKVVFEGSAYGLQNFNKQKKLKRCDDMDTFFLHYAAAEGQIELMEKITRDSSLEVLHEMDDYGNTPLHCAVEKNQIESVKFLLSRGANPNLRNFNMMAPLHIAVQGMNNEVMKVLLEHRTIDVNLEGENGNTAVIIACTTNNSEALQILLKKGAKPCKSNKWGCFPIHQAAFSGSKECMEIILRFGEEHGYSRQLHINFMNNGKATPLHLAVQNGDLEMIKMCLDNGAQIDPVEKGRCTAIHFAATQGATEIVKLMISSYSGSVDIVNTTDGCHETMLHRASLFDHHELADYLISVGADINKIDSEGRSPLILATASASWNIVNLLLSKGAQVDIKDNFGRNFLHLTVQQPYGLKNLRPEFMQMQQIKELVMDEDNDGCTPLHYACRQGGPGSVNNLLGFNVSIHSKSKDKKSPLHFAASYGRINTCQRLLQDISDTRLLNEGDLHGMTPLHLAAKNGHDKVVQLLLKKGALFLSDHNGWTALHHASMGGYTQTMKVILDTNLKCTDRLDEDGNTALHFAAREGHAKAVALLLSHNADIVLNKQQASFLHLALHNKRKEVVLTIIRSKRWDECLKIFSHNSPGNKCPITEMIEYLPECMKVLLDFCMLHSTEDKSCRDYYIEYNFKYLQCPLEFTKKTPTQDVIYEPLTALNAMVQNNRIELLNHPVCKEYLLMKWLAYGFRAHMMNLGSYCLGLIPMTILVVNIKPGMAFNSTGIINETSDHSEILDTTNSYLIKTCMILVFLSSIFGYCKEAGQIFQQKRNYFMDISNVLEWIIYTTGIIFVLPLFVEIPAHLQWQCGAIAVYFYWMNFLLYLQRFENCGIFIVMLEVILKTLLRSTVVFIFLLLAFGLSFYILLNLQDPFSSPLLSIIQTFSMMLGDINYRESFLEPYLRNELAHPVLSFAQLVSFTIFVPIVLMNLLIGLAVGDIAEVQKHASLKRIAMQVELHTSLEKKLPLWFLRKVDQKSTIVYPNKPRSGGMLFHIFCFLFCTGEIRQEIPNADKSLEMEILKQKYRLKDLTFLLEKQHELIKLIIQKMEIISETEDDDSHCSFQDRFKKEQMEQRNSRWNTVLRAVKAKTHHLEP | decreases, 142.3 vs 35.0 | no change | no change, 866 vs 1155 | changes, 14.8 vs 13.5 | decreases, 20.9 vs 9.5 | decreases | no change
2 | hTRPA1: N747Q (protein) parent chain: MKRSLRKMWRPGEKKEPQGVVYEDVPDDTEDFKESLKVVFEGSAYGLQNFNKQKKLKRCDDMDTFFLHYAAAEGQIELMEKITRDSSLEVLHEMDDYGNTPLHCAVEKNQIESVKFLLSRGANPNLRNFNMMAPLHIAVQGMNNEVMKVLLEHRTIDVNLEGENGNTAVIIACTTNNSEALQILLKKGAKPCKSNKWGCFPIHQAAFSGSKECMEIILRFGEEHGYSRQLHINFMNNGKATPLHLAVQNGDLEMIKMCLDNGAQIDPVEKGRCTAIHFAATQGATEIVKLMISSYSGSVDIVNTTDGCHETMLHRASLFDHHELADYLISVGADINKIDSEGRSPLILATASASWNIVNLLLSKGAQVDIKDNFGRNFLHLTVQQPYGLKNLRPEFMQMQQIKELVMDEDNDGCTPLHYACRQGGPGSVNNLLGFNVSIHSKSKDKKSPLHFAASYGRINTCQRLLQDISDTRLLNEGDLHGMTPLHLAAKNGHDKVVQLLLKKGALFLSDHNGWTALHHASMGGYTQTMKVILDTNLKCTDRLDEDGNTALHFAAREGHAKAVALLLSHNADIVLNKQQASFLHLALHNKRKEVVLTIIRSKRWDECLKIFSHNSPGNKCPITEMIEYLPECMKVLLDFCMLHSTEDKSCRDYYIEYNFKYLQCPLEFTKKTPTQDVIYEPLTALNAMVQNNRIELLNHPVCKEYLLMKWLAYGFRAHMMNLGSYCLGLIPMTILVVNIKPGMAFNSTGIINETSDHSEILDTTNSYLIKTCMILVFLSSIFGYCKEAGQIFQQKRNYFMDISNVLEWIIYTTGIIFVLPLFVEIPAHLQWQCGAIAVYFYWMNFLLYLQRFENCGIFIVMLEVILKTLLRSTVVFIFLLLAFGLSFYILLNLQDPFSSPLLSIIQTFSMMLGDINYRESFLEPYLRNELAHPVLSFAQLVSFTIFVPIVLMNLLIGLAVGDIAEVQKHASLKRIAMQVELHTSLEKKLPLWFLRKVDQKSTIVYPNKPRSGGMLFHIFCFLFCTGEIRQEIPNADKSLEMEILKQKYRLKDLTFLLEKQHELIKLIIQKMEIISETEDDDSHCSFQDRFKKEQMEQRNSRWNTVLRAVKAKTHHLEP | decreases, 141.0 vs 35.0 | no change | no change, 947 vs 1155 | changes, 18.2 vs 13.5 |  | decreases | increases
3 | hTRPA1: N753Q (protein) parent chain: MKRSLRKMWRPGEKKEPQGVVYEDVPDDTEDFKESLKVVFEGSAYGLQNFNKQKKLKRCDDMDTFFLHYAAAEGQIELMEKITRDSSLEVLHEMDDYGNTPLHCAVEKNQIESVKFLLSRGANPNLRNFNMMAPLHIAVQGMNNEVMKVLLEHRTIDVNLEGENGNTAVIIACTTNNSEALQILLKKGAKPCKSNKWGCFPIHQAAFSGSKECMEIILRFGEEHGYSRQLHINFMNNGKATPLHLAVQNGDLEMIKMCLDNGAQIDPVEKGRCTAIHFAATQGATEIVKLMISSYSGSVDIVNTTDGCHETMLHRASLFDHHELADYLISVGADINKIDSEGRSPLILATASASWNIVNLLLSKGAQVDIKDNFGRNFLHLTVQQPYGLKNLRPEFMQMQQIKELVMDEDNDGCTPLHYACRQGGPGSVNNLLGFNVSIHSKSKDKKSPLHFAASYGRINTCQRLLQDISDTRLLNEGDLHGMTPLHLAAKNGHDKVVQLLLKKGALFLSDHNGWTALHHASMGGYTQTMKVILDTNLKCTDRLDEDGNTALHFAAREGHAKAVALLLSHNADIVLNKQQASFLHLALHNKRKEVVLTIIRSKRWDECLKIFSHNSPGNKCPITEMIEYLPECMKVLLDFCMLHSTEDKSCRDYYIEYNFKYLQCPLEFTKKTPTQDVIYEPLTALNAMVQNNRIELLNHPVCKEYLLMKWLAYGFRAHMMNLGSYCLGLIPMTILVVNIKPGMAFNSTGIINETSDHSEILDTTNSYLIKTCMILVFLSSIFGYCKEAGQIFQQKRNYFMDISNVLEWIIYTTGIIFVLPLFVEIPAHLQWQCGAIAVYFYWMNFLLYLQRFENCGIFIVMLEVILKTLLRSTVVFIFLLLAFGLSFYILLNLQDPFSSPLLSIIQTFSMMLGDINYRESFLEPYLRNELAHPVLSFAQLVSFTIFVPIVLMNLLIGLAVGDIAEVQKHASLKRIAMQVELHTSLEKKLPLWFLRKVDQKSTIVYPNKPRSGGMLFHIFCFLFCTGEIRQEIPNADKSLEMEILKQKYRLKDLTFLLEKQHELIKLIIQKMEIISETEDDDSHCSFQDRFKKEQMEQRNSRWNTVLRAVKAKTHHLEP | no change, 42.0 vs 35.0 | no change | no change, 902 vs 1155 | no change, 18.0 vs 13.5 | no change, 10.5 vs 9.5 | decreases | no change
